Values quoted from earlier work as cited in PMC7609432.
Where two headings read alike, the source gives them in different places.

Tests used:
[1] = molecular target: IQGAP1 (Danio rerio); test: SW-FCCS
[2] = molecular target: IQGAP1 (Danio rerio); test: SW-FCCS; remark: listed apart in the source

IQGAP1 (Danio rerio), sequence (P46940 2-1657): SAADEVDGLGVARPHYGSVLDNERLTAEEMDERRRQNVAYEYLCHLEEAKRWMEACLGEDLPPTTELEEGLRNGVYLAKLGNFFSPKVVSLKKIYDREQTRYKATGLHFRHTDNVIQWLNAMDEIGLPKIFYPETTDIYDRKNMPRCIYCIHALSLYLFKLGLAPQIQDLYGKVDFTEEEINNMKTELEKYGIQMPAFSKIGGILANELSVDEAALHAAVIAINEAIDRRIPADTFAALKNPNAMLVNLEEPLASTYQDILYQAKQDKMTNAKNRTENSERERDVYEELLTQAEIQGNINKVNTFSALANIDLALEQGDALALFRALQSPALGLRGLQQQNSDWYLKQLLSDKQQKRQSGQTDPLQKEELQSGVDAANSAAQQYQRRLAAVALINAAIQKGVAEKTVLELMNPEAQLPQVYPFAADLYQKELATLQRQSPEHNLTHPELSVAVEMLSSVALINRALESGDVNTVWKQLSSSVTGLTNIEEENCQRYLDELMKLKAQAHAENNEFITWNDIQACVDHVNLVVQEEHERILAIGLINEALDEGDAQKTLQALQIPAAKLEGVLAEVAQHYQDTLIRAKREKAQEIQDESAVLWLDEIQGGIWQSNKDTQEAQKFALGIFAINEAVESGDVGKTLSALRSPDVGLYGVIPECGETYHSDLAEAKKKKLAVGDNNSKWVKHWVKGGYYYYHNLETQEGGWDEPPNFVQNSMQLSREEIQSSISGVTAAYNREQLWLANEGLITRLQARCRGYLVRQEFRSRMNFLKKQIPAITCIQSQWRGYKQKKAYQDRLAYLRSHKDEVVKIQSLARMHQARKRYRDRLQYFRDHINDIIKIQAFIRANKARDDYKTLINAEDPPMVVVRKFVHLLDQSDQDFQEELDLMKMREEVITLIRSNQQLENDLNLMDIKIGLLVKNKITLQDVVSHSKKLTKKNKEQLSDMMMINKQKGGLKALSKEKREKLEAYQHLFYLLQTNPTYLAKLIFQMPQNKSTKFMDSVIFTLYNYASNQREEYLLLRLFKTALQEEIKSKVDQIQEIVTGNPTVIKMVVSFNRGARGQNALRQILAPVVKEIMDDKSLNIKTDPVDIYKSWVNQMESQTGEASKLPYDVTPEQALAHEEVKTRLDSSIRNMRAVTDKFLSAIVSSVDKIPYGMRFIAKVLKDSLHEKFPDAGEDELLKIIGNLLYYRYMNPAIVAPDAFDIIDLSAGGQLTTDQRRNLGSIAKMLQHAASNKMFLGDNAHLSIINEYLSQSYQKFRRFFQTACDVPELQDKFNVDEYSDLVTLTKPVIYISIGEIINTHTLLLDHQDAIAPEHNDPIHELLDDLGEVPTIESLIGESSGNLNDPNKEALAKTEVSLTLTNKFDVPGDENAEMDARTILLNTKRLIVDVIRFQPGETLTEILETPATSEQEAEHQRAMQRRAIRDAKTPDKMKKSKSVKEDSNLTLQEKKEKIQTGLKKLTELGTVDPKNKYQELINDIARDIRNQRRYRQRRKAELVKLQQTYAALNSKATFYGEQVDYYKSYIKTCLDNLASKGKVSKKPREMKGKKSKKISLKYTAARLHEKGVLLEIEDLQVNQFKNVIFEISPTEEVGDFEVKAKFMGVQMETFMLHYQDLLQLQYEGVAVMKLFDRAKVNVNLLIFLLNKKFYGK

For Cdc42 (from UniProt P60953), the Kd [1] is given as greater than 1500 nM and the Kd [2] is given as 105 nM.
